Measured values from PMC12748774.

Assays:
[1] = target: JEV CC_FLE sE (G5C/G102C), disulfide-linked dimer (Japanese encephalitis virus (SA-14-14-2 strain)); assay: cryo-EM structure
[2] = target: JEV CC_FLE sE (G5C/G102C), disulfide-linked dimer (Japanese encephalitis virus (SA-14-14-2 strain)); assay: SEC; purified sE proteins on a Superose 6 column
[3] = target: WNV CC_FLE sE (G5C/G102C), dimer (West Nile virus); assay: cryo-EM structure
[4] = target: WNV CC_FLE sE (G5C/G102C), dimer (West Nile virus); assay: SEC; purified sE proteins on a Superose 6 column
[5] = target: ZIKV CC_Core sE (A264C), disulfide-linked dimer (Zika virus (Brazilian Zika SPH2015 strain)); assay: cryo-EM structure
[6] = target: ZIKV CC_Core sE (A264C), disulfide-linked dimer (Zika virus (Brazilian Zika SPH2015 strain)); assay: SEC; purified sE proteins on a Superose 6 column
[7] = target: ZIKV CC_Core sE (A264C), disulfide-linked dimer (Zika virus (Brazilian strain SPH2015)); assay: SEC
[8] = target: ZIKV CC_Core sE (A264C), disulfide-linked dimer (Zika virus (Brazilian strain SPH2015)); assay: SDS-PAGE with and without the reducing reagent DTT
[9] = target: ZIKV CC_FLE sE (G5C/G102C), disulfide-linked dimer (Zika virus (Brazilian Zika SPH2015 strain)); assay: cryo-EM structure
[10] = target: ZIKV CC_FLE sE (G5C/G102C), disulfide-linked dimer (Zika virus (Brazilian Zika SPH2015 strain)); assay: SEC; purified sE proteins on a Superose 6 column
[11] = target: ZIKV CC_FLE sE (G5C/G102C), disulfide-linked dimer (Zika virus (Brazilian strain SPH2015)); assay: SEC
[12] = target: ZIKV CC_FLE sE (G5C/G102C), disulfide-linked dimer (Zika virus (Brazilian strain SPH2015)); assay: SDS-PAGE with and without the reducing reagent DTT

Measured: stoichiometry N

JEV CC_FLE sE (G5C/G102C), disulfide-linked dimer (domain or fragment)
2: [1] | [2]

WNV CC_FLE sE (G5C/G102C), dimer (domain or fragment)
2: [3] | [4]

ZIKV CC_Core sE (A264C), disulfide-linked dimer (domain or fragment)
2: [5] | [6] | [7] | [8]

ZIKV CC_FLE sE (G5C/G102C), disulfide-linked dimer (domain or fragment)
2: [9] | [10] | [11] | [12]
